# Residue numbers refer to the chain shown, from its start. Names and notes keep the numbering of the source.
# B1: isolated TPR domain of FICD (domain or fragment)
# chain: LEARAALNQALEMKRQGKREKAQKLFMHALKMDPDFVDALTEFGIFSEEDKDIIQADYLYTRALTISPYH
# B2: FICD^L258D-H363A (residues 104–445), monomeric, catalytically inactive (enzyme, human, UniProt Q9BVA6 104-445, looked up)
# chain: LEARAALNQALEMKRQGKREKAQKLFMHALKMDPDFVDALTEFGIFSEEDKDIIQADYLYTRALTISPYHEKALVNRDRTLPLVEEIDQRYFSIIDSKVKKVMSIPKGNSALRRVMEETYYHHIYHTVAIEGNTLTLSEIRHILETRYAVPGKSDEEQNEVIGMHAAMKYINTTLVSRIGSVTISDVLEIHRRVLGYVDPVEAGRFRTTQVLVGHHIPPHPQDVEKQMQEFVQWLNSEEAMNLHPVEFAALAHYKLVYIAPFIDGNGRTSRLLMNLILMQAGYPPITIRKEQRSDYYHVLEAANEGDVRPFIRFIAKCTETTLDTLLFATTEYSVALPEAQP
# notes: human FICD, predicted structured regions, residues 104–445; L258D makes FICD monomeric; H363A traps the deAMPylation substrate; also called monomeric FICD^L258D-H363A; UK2093; source: E. coli, purified (Ni-NTA, on-bead Ulp1 cleavage, anion exchange, gel filtration); not shown: His6-Smt3, N-terminal, cleaved
# B3: dimeric FICD^H363A(TPRox): FICD^D160C-T183C-H363A-C421S, oxidised (enzyme, human, UniProt Q9BVA6 104-445, looked up)
# chain: B2 chain with D57C, T80C, D155L, C318S
# modifications: intramolecular disulfide bond between Cys160 and Cys183
# notes: human FICD residues 104–445; also called TPRox (dimeric); source: E. coli, purified; oxidised with CuSO4 and 1,10-phenanthroline, Capto Q, RESOURCE Q, gel filtration; not shown: His6-Smt3, N-terminal, cleaved
# B4: dimeric FICD^H363A(TPRred): FICD^D160C-T183C-H363A-C421S, cysteines reduced (enzyme, human, UniProt Q9BVA6 104-445, looked up)
# chain: B2 chain with D57C, T80C, D155L, C318S
# notes: human FICD residues 104–445; The cysteine-reduced form of m11; also called TPRred (dimeric); source: E. coli, purified; not shown: His6-Smt3, N-terminal, cleaved
# B5: FICD^H363A (residues 104–445), dimeric, catalytically inactive (enzyme, human, UniProt Q9BVA6 104-445, looked up)
# chain: B2 chain with D155L
# notes: human FICD, predicted structured regions, residues 104–445; also called dimeric FICD; dimeric FICD^H363A; source: E. coli, purified (Ni-NTA, on-bead Ulp1 cleavage, anion exchange, gel filtration); matchout-deuterated form from E. coli BL21 Star (DE3), purified; not shown: His6-Smt3, N-terminal, cleaved
# B6: monomeric FICD^L258D-H363A(TPRox): FICD^D160C-T183C-L258D-H363A-C421S, oxidised (enzyme, human, UniProt Q9BVA6 104-445, looked up)
# chain: B2 chain with D57C, T80C, C318S
# modifications: intramolecular disulfide bond between Cys160 and Cys183
# notes: human FICD residues 104–445; PDB entries hold the parent m1; also called TPRox (monomeric); source: E. coli, purified; oxidised with CuSO4 and 1,10-phenanthroline, Capto Q, RESOURCE Q, gel filtration; not shown: His6-Smt3, N-terminal, cleaved
# What was measured:
# [1] = biological target: T1, biotinylated-AviTag-haBiP^T229A-V461F (residues 27–635), unmodified (Chinese hamster, UniProt G3I8R9 27-635, T229A | V461F, biotin on the N-terminal Avi-tag); experiment: BLI; biotinylated nucleotide-free BiP (BiP:Apo) immobilised on streptavidin biosensor, before ATP activation; 16 µM TPR domain for 50 s; HKMTx, 30 °C; settings: both partners purified
# T1 construct: Chinese hamster BiP residues 27–635; identical to human BiP over this range; A GS linker stands between the Avi-tag and BiP residue 27; also called unmodified BiP; BiP:ATP; source: E. coli, purified; biotinylated in vitro with GST-BirA, made nucleotide-free, MonoQ; not shown: His6-Smt3, N-terminal, cleaved; Avi-tag (biotinylated), N-terminal, kept
# T1 sequence (G3I8R9 27-635 T229A/V461F): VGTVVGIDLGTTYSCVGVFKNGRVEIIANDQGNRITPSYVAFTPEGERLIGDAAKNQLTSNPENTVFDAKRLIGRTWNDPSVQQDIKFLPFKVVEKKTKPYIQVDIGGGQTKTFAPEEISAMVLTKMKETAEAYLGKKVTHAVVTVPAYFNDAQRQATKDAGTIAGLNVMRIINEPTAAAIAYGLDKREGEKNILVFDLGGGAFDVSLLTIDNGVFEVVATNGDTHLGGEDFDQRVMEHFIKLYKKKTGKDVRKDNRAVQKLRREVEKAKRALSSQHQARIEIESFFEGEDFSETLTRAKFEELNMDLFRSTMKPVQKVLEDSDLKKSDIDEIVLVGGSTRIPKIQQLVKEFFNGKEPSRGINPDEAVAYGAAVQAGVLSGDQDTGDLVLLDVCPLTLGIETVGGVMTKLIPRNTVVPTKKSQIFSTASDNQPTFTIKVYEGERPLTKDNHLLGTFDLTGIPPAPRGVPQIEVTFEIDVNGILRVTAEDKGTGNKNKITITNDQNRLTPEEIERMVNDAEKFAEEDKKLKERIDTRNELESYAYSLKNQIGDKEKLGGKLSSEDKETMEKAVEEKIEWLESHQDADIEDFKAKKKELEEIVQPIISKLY
# [2] = biological target: T1, biotinylated-AviTag-haBiP^T229A-V461F …; experiment: BLI; biotinylated BiP immobilised on streptavidin biosensor, activated with 2 mM ATP (BiP:ATP); TPR domain 62.5 nM to 16 µM, 50 s association and 50 s dissociation; HKMTx, 30 °C; one-phase global fit and steady-state one site fit; settings: both partners purified
# [3] = biological target: T2, lid-truncated BiP^T229A-V461F-AMP (residues 27–549) (Chinese hamster, UniProt G3I8R9 27-549, T229A | V461F, AMP covalently attached to Thr518 (Thr518-AMP)); experiment: crystal structure; heterodimer copurified by gel filtration (FICD:BiP-AMP mixed 1.5:1 with 250 µM ATP, 50 mM KCl, 2 mM MgCl2; TNKMT buffer), sitting drop vapour diffusion at 25 °C; two crystal forms (state 1, state 2); settings: both partners purified
# T2 construct: Chinese hamster BiP residues 27–549 (all but helix A of SBDα removed); identical to human BiP over this range; also called AMPylated BiP; BiP-AMP; source: E. coli, purified (Ni-NTA, Ulp1 cleavage, anion exchange, gel filtration); AMPylated in vitro with GST-TEV-FICD^E234G; not shown: His6-Smt3, N-terminal, cleaved
# T2 sequence (G3I8R9 27-549 T229A/V461F): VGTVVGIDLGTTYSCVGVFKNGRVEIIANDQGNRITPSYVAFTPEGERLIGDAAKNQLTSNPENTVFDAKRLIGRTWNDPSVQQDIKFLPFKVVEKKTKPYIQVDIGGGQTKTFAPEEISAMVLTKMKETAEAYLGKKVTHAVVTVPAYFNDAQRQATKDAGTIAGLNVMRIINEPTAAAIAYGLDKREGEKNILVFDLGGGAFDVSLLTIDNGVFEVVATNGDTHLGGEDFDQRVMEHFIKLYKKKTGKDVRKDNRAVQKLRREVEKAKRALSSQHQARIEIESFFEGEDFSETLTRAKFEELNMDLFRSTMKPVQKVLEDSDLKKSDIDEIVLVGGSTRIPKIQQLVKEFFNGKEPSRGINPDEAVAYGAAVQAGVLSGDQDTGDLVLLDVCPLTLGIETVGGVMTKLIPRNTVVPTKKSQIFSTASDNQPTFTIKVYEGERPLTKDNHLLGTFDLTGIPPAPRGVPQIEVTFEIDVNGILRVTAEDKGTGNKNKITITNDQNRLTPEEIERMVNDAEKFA
# [4] = biological target: T1, biotinylated-AviTag-haBiP^T229A-V461F …; experiment: BLI; biotinylated BiP or BiP-AMP immobilised on streptavidin biosensors, activated in 2 mM ATP for 200 s; apo FICD analytes at 50 nM unless otherwise specified; HKM with 0.05% Triton X-100, 30 °C; second dissociation step with 2 mM ATP; settings: both partners purified
# [5] = biological target: T3, AMPylated biotinylated-AviTag-haBiP^T229A-V461F (residues 27–635) (Chinese hamster, UniProt G3I8R9 27-635, T229A | V461F, AMP covalently attached to Thr518 (Thr518-AMP); biotin on the N-terminal Avi-tag); experiment: as above; settings: both partners purified
# T3 construct: Chinese hamster BiP residues 27–635; identical to human BiP over this range; A GS linker stands between the Avi-tag and BiP residue 27; also called AMPylated BiP; BiP-AMP; source: E. coli, purified; AMPylated in vitro with GST-TEV-FICD^E234G, biotinylated in vitro with GST-BirA, made nucleotide-free, MonoQ; not shown: His6-Smt3, N-terminal, cleaved; Avi-tag (biotinylated), N-terminal, kept
# T3 sequence (G3I8R9 27-635 T229A/V461F): as the sequence (G3I8R9 27-635 T229A/V461F) above
# [6] = biological target: T4, BiP^T229A-V461F-AMP (residues 27–635), 'full-length' AMPylated BiP (Chinese hamster, UniProt G3I8R9 27-635, T229A | V461F, AMP covalently attached to Thr518 (Thr518-AMP)); experiment: contrast variation small-angle neutron scattering (SANS); complexes of partially deuterated and non-deuterated FICD^H363A and BiP-AMP copurified by gel filtration (1.25:1 BiP-AMP:FICD, 250 µM ATP) in TNKMT(0.2) at various %D2O; 4.3–5.5 mg/ml, 12 °C; settings: both partners purified
# T4 construct: Chinese hamster BiP residues 27–635 (lacks the unstructured acidic N-terminal region and the C-terminal region with KDEL); identical to human BiP over this range; The deAMPylation assays used BiP^T229A-V461F (UK2521) AMPylated in vitro; also called full-length BiP-AMP; hBiP-AMP; source: E. coli, purified (Ni-NTA, Ulp1 cleavage, anion exchange, gel filtration); AMPylated in vitro with …
# T4 sequence (G3I8R9 27-635 T229A/V461F): as above
# [7] = biological target: the molecule itself; experiment: as above
Binder,binding result [4],binding result [5],further results
B1,–,–,Kd [1]: > 160 µM; Kd [2]: 1100 nM
B2,binds,binds,binding result [3]: binds
B3,–,binds,–
B4,–,binds,–
B5,binds,binds,binding result [6]: binds; binding result [7]: binds
B6,binds,binds,–

# — article PMC8373988, “Structures of a deAMPylation complex rationalise the switch between antagonistic catalytic activities of FICD” (Nature Communications, 2021)
